{"source": "paper PMC4655416", "binders": {"B1": {"name": "protein phosphatase 5 from C. elegans (PPH-5) (enzyme)", "chain": "MAATITDDIVATVLESIEEKSYEDEKEKAGMIKDEANQFFKDQVYDVAADLYSVAIEIHPTAVLYGNRAQAYLKKELYGSALEDADNAIAIDPSYVKGFYRRATANMALGRFKKALTDYQAVVKVCPNDKDARAKFDECSKIVRRQKFEAAISTDHDKKTVAETLDINAMAIEDSYDGPRLEDKITKEFVLQLIKTFKNQQKLHKKYAFKMLLEFYNYVKSLPTMVEITVPTGKKFTICGDVHGQFYDLCNIFEINGYPSETNPYLFNGDFVDRGSFSVETIFTMIGFKLLYPNHFFMSRGNHESDVMNKMYGFEGEVKAKYTQQMCDMFTETFCWLPLCHLINEKIFVCHGGLFKEDGVTLEDIRKTDRNRQPPDEGIMCDLLWSDPQPINGRSPSKRGVGCQFGPDVTSKWCETNGIEYVVRSHEVKPEGYEMHHNGQCFTVFSAPNYCDQMNNKGAFITITGDNLTPRFTPFDAVPHPKLPPMAYANSLFGFN"}}, "key": {"[1]": {"molecular_target": "CeHsp90-MC (middle and C-terminal domains of C. elegans Hsp90) (C. elegans)", "assay": "AUC; sedimentation velocity with UV/VIS absorbance optics (OD280); PPH-5 titrated to a constant concentration of CeHsp90 (4 μM) or CeHsp90-MC (3.5 μM); global fit to sequential binding of a first and second PPH-5"}, "[2]": {"molecular_target": "CeHsp90-MC (middle and C-terminal domains of C. elegans Hsp90) (C. elegans)"}}, "data": [{"binder": "B1", "values": [{"measurement": "stoichiometry N (PPH-5 per CeHsp90-MC dimer)", "setting": "[1]", "result": 2}, {"measurement": "kcat of PPH-5 towards the model peptide KRpTIRR (50 μM) with 3 μM Hsp90-MC", "setting": "[2]", "result": 0.161, "unit": "s⁻¹"}]}]}
